Measurements from patent USRE48522 (SURVAC, dated 2021).

B1: Sur46Y9 (peptide)
peptide: CPTENEPDY
notes: Analogue of survivin46-54 with the C-terminal L replaced by Y
B2: Sur51Y9 (peptide)
peptide: EPDLAQCFY
notes: Analogue of survivin51-59 with the C-terminal F replaced by Y
B3: Sur53K9 (peptide)
peptide: DLAQCFFCK
notes: Sur53-61 with the C-terminal F replaced by K
B4: Sur5K9 (peptide)
peptide: TLPPAWQPK
notes: Sur5-13 with the C-terminal F replaced by K
B5: Sur13K9 (peptide)
peptide: FLKDHRISTK
notes: Sur13-22 with the C-terminal F replaced by K
B6: Sur54L2 (peptide)
peptide: LLQCFFCFK
notes: Sur54-62 with A at position 2 replaced by L
B7: Sur113L2 (peptide)
peptide: ILKETNNKKK
notes: Sur113-122 with A at position 2 replaced by L
B8: Sur1M2 (peptide)
peptide: LMLGEFLKL
notes: Analogue of survivin96-104 (Sur1) with T at position 2 replaced by M; also called modified survivin96-104
B9: Sur1L2 (peptide)
peptide: LLLGEFLKL
notes: Analogue of survivin96-104 (Sur1) with T at position 2 replaced by L

These binders were tested against HLA-B35 (human) (assay: assembly assay: HLA-B35 stabilisation; against sur46-54).

Row | Binder | fold higher affinity relative to the native peptide
1 | B1 | 5 to 10 fold

What follows are binders tested against HLA-B35 (human) (assay: assembly assay: HLA-B35 stabilisation; against sur51-59).

Row | Binder | fold higher affinity relative to the native peptide
2 | B2 | 5 to 10 fold

The binders below were run against HLA-A3 (HLA-A*0301) (human) (assay: assembly assay: HLA stabilisation, TAP-deficient cell lysate, W6/32 IP, IEF gel).

Row | Binder | binding result | C50
3 | DLAQCFFCF [Sur 53-61] | no binding (tested: 100, 10, 1, 0.1, 0.01 µM) | 
4 | B3 | no binding (tested: 100, 10, 1, 0.1, 0.01 µM) | 
5 | DLAQCFFCFK (also called Survivin53-62) [Sur 53-62] |  | 100 µM
6 | KIAKETNNK [Sur 112-120] |  | 2 µM
7 | FLKLDRERAK [Sur 101-110] | no binding (tested: 100, 10, 1, 0.1, 0.01 µM) | 
8 | TIRRKNLRK [SurEx3-A3-1] |  | 0.5 µM
9 | RISTFKNWPK (Sur18-27 with F changed to K at P10) [Sur18K10] |  | 0.02 µM
10 | RISTFKNWPF (also called Survivin18-27) [Sur 18-27] | no binding (tested: 100, 10, 1, 0.1, 0.01 µM) | 
11 | B4 |  | 2 µM
12 | PTIRRKNLRK [SurEx3-A3-2] | no binding (tested: 100, 10, 1, 0.1, 0.01 µM) | 
13 | B5 | no binding (tested: 100, 10, 1, 0.1, 0.01 µM) | 
14 | KLDRERAKNK [Sur 103-112] | no binding (tested: 100, 10, 1, 0.1, 0.01 µM) | 
15 | KIAKETNNKK [Sur 112-121] |  | 1 µM
16 | B6 |  | 1 µM
17 | B7 |  | > 100 µM
18 | IAKETNNKKK [Sur 113-122] | no binding (tested: 100, 10, 1, 0.1, 0.01 µM) | 
19 | CAFLSVKKQF [Sur 84-93] | no binding (tested: 100, 10, 1, 0.1, 0.01 µM) | 
20 | ELTLGEFLK [Sur 95-103] |  | > 100 µM
21 | RITREEHKK [Sur2b-A3-1] | no binding (tested: 100, 10, 1, 0.1, 0.01 µM) | 

The binders below were run against T1, HLA-A2 (HLA-A*0201) (human) in the same assay as above.
T1 construct: MHC class I molecule to which the peptide is added in the assembly assay (T2 cells); folded molecules are immunoprecipitated with conformation-dependent antibody

Row | Binder | binding result
22 | LAQCFFCFKEL [Sur54-64] | no binding (tested: 100, 10, 1, 0.1, 0.01 µM)
23 | KLDRERAKNKI [Sur103-113] | no binding (tested: 100, 10, 1, 0.1, 0.01 µM)
24 | PTLPPAWQPFL [Sur4-14] | no binding (tested: 100, 10, 1, 0.1, 0.01 µM)
25 | SVKKQFEELTL [Sur88-98] | no binding (tested: 100, 10, 1, 0.1, 0.01 µM)

What follows are binders tested against HLA-A1 (HLA-A*0101) (human) in the same assay as above.

Row | Binder | binding result | C50
26 | EPDLAQCFF [Sur51-59 (Survivin51-59)] | no binding (tested: 40, 4, 0.4, 0.04 µM) | 
27 | LKDHRISTF [Sur14-22] | no binding (tested: 40, 4, 0.4, 0.04 µM) | 
28 | LKDHRISTY (Sur14-22 with Y at the C-terminus) [sur14Y9] | no binding (tested: 40, 4, 0.4, 0.04 µM) | 
29 | QFEELTLGEF (also called Survivin92-101) [Sur92-101] |  | 2 µM
30 | QFEELTLGEY (Sur92-101 with Y at the C-terminus) [sur92Y9] | no binding (tested: 40, 4, 0.4, 0.04 µM) | 
31 | QSEELTLGEF (Sur92-101 with S at position 2) [Sur92S2] |  | 100 µM
32 | QTEELTLGEF (Sur92-101 with T at position 2) [Sur92T2] |  | 2 µM
33 | MAEAGFIHY (Sur38-46 with C changed to Y at P9) [Sur38Y9] |  | 0.8 µM
34 | MAEAGFIHC (also called Survivin38-46) [Sur38-46] | no binding (tested: 40, 4, 0.4, 0.04 µM) | 
35 | PTENEPDLAY (Sur47-56 with Q changed to Y at P10) [Sur47Y10] |  | 0.4 µM
36 | PTENEPDLAQ (also called Survivin47-56) [Sur47-56] | no binding (tested: 40, 4, 0.4, 0.04 µM) | 
37 | TPERMAEAGF (also called sur34-46 (as printed once)) [Sur34-43 (Survivin34-43)] | no binding (tested: 40, 4, 0.4, 0.04 µM) | 
38 | TPERMAEAGY (Sur34-43 with Y at the C-terminus) [sur34Y9] | no binding (tested: 40, 4, 0.4, 0.04 µM) | 
39 | FEELTLGEF (also called Survivin93-101) [Sur93-101] |  | > 100 µM
40 | FEELTLGEY (Sur93-101 with Y at the C-terminus) [sur93Y9] | no binding (tested: 40, 4, 0.4, 0.04 µM) | 
41 | FTELTLGEF (Sur93-101 with T at position 2) [Sur93T2] |  | 1 µM
42 | FSELTLGEF (Sur93-101 with S at position 2) [Sur93S2] |  | 30 µM
43 | ENEPDLAQCF [Sur49-58] | no binding (tested: 40, 4, 0.4, 0.04 µM) | 
44 | ENEPDLAQCY (Sur49-58 with Y at the C-terminus) [sur49Y9] | no binding (tested: 40, 4, 0.4, 0.04 µM) | 

These binders were tested against HLA-A11 (HLA-A*1101) (human) in the same assay as above.

Row | Binder | binding result | C50
45 | DLAQCFFCF [Sur 53-61] | no binding (tested: 40, 4, 0.4, 0.04 µM) | 
46 | DLAQCFFCFK (also called Survivin53-62) [Sur 53-62] |  | 5 µM
47 | KIAKETNNK [Sur 112-120] |  | 1 µM
48 | FLKLDRERAK [Sur 101-110] | no binding (tested: 40, 4, 0.4, 0.04 µM) | 
49 | RISTFKNWPF (also called Survivin18-27) [Sur 18-27] | no binding (tested: 40, 4, 0.4, 0.04 µM) | 
50 | KLDRERAKNK [Sur 103-112] | no binding (tested: 40, 4, 0.4, 0.04 µM) | 
51 | KIAKETNNKK [Sur 112-121] |  | > 100 µM
52 | IAKETNNKKK [Sur 113-122] | no binding (tested: 40, 4, 0.4, 0.04 µM) | 
53 | CAFLSVKKQF [Sur 84-93] | no binding (tested: 40, 4, 0.4, 0.04 µM) | 
54 | ELTLGEFLK [Sur 95-103] | no binding (tested: 40, 4, 0.4, 0.04 µM) | 

What follows are binders tested against HLA-B35 (human) (assay: assembly assay: HLA-B35 stabilisation, T2-B35 lysate, W6/32 IP, IEF gel).

Row | Binder | C50
55 | B2 | 1.5 µM
56 | EPDLAQCFF [Sur51-59 (Survivin51-59)] | 13 µM
57 | B1 | 4 µM
58 | LPPAWQPFL [Sur6-14 (Survivin6-14)] | > 100 µM
59 | TPERMAEAGF (also called sur34-46 (as printed once)) [Sur34-43 (Survivin34-43)] | > 100 µM
60 | CPTENEPDL [Sur46-54 (Survivin46-54)] | 20 µM

What follows are binders tested against T1, HLA-A2 (HLA-A*0201) (assay: assembly assay: HLA-A2 stabilisation, T2 cells, IP, IEF gel).

Row | Binder | C50 | binding result
61 | FLKLDRERA [Sur6 (Survivin101-109)] | 30 µM | 
62 | RAIEQLAAM [Sur2 (Survivin133-141)] |  | no binding
63 | TLPPAWQPFL [Sur8 (Survivin5-14)] | 30 µM | 
64 | KVRRAIEQL [Sur3 (Survivin130-138)] | > 100 µM | 
65 | ETAKKVRRAI [Sur10 (Survivin126-135)] |  | no binding
66 | ELTLGEFLKL (also called Sur95-104) [Sur9 (Survivin95-104)] | 10 µM | 
67 | TAKKVRRAI [Sur7 (Survivin127-135)] |  | no binding
68 | LTLGEFLKL (also called Sur96-104) [Sur1 (Survivin96-104)] | > 100 µM | 
69 | B8 | 1 µM | 
70 | B9 | 1 µM | 
71 | SVKKQFEEL [Sur5 (Survivin88-96)] |  | no binding
